Source: patent US20200262877A1, “ION CHANNEL-BINDING PEPTIDES AND METHODS OF USE THEREOF” (priority 2017, published 2020)

How the values were obtained:
α4β2 = molecular target: T1, α4β2 (Homo sapiens, UniProt P17787+P43681); test: Ion channel panel (IonWorks Barracuda): α4β2; assay type: cell-based; details: 100% = no change, <100% = inhibition
T1 construct: host or cells: HEK293 or CHO
Procedure, shortened: (§1)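 Peptides were tested in duplicate at final 20 μM and 200 nM, with concentration set by amino acid analysis, in HEPES-buffered saline. They were applied for at least 5 min to HEK293 or CHO cells transfected with each channel. Currents were expressed as % inhibition, 1-(Ipeptide/Icontrol)×100, or % activation, Ipeptide/Icontrol×100, against a channel-matched reference compound.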

5HT3a = molecular target: T2, 5HT3a (Homo sapiens, UniProt P46098); test: Ion channel panel (IonWorks Barracuda): 5HT3a; assay type: cell-based
T2 construct: host or cells: HEK293 or CHO
T2 sequence (P46098 whole entry, looked up): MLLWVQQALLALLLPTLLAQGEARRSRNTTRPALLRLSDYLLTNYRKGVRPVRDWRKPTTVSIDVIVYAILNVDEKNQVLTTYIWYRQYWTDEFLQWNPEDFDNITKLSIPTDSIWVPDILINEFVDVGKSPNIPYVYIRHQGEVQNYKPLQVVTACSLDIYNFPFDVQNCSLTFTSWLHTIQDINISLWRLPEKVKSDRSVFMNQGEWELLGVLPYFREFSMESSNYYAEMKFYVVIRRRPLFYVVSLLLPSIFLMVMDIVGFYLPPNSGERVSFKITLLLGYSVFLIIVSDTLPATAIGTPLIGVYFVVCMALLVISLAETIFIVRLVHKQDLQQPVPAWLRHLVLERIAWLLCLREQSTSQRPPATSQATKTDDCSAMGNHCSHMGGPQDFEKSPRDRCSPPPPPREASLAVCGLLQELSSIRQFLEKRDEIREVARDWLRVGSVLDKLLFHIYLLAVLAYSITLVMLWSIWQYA
Procedure, shortened: as §1

Nav1.5 = Nav1.5 (Homo sapiens, UniProt Q14524); test: in vitro; details: 100% = no change; for Activity of Nav1.5 with peptide, expressed as a percentage of the reference compound: peptide at 0.2 μM; for Activity of Nav1.5 with peptide (percentage of the reference compound): peptide at 20 μM
Nav1.5, sequence (Q14524 whole entry): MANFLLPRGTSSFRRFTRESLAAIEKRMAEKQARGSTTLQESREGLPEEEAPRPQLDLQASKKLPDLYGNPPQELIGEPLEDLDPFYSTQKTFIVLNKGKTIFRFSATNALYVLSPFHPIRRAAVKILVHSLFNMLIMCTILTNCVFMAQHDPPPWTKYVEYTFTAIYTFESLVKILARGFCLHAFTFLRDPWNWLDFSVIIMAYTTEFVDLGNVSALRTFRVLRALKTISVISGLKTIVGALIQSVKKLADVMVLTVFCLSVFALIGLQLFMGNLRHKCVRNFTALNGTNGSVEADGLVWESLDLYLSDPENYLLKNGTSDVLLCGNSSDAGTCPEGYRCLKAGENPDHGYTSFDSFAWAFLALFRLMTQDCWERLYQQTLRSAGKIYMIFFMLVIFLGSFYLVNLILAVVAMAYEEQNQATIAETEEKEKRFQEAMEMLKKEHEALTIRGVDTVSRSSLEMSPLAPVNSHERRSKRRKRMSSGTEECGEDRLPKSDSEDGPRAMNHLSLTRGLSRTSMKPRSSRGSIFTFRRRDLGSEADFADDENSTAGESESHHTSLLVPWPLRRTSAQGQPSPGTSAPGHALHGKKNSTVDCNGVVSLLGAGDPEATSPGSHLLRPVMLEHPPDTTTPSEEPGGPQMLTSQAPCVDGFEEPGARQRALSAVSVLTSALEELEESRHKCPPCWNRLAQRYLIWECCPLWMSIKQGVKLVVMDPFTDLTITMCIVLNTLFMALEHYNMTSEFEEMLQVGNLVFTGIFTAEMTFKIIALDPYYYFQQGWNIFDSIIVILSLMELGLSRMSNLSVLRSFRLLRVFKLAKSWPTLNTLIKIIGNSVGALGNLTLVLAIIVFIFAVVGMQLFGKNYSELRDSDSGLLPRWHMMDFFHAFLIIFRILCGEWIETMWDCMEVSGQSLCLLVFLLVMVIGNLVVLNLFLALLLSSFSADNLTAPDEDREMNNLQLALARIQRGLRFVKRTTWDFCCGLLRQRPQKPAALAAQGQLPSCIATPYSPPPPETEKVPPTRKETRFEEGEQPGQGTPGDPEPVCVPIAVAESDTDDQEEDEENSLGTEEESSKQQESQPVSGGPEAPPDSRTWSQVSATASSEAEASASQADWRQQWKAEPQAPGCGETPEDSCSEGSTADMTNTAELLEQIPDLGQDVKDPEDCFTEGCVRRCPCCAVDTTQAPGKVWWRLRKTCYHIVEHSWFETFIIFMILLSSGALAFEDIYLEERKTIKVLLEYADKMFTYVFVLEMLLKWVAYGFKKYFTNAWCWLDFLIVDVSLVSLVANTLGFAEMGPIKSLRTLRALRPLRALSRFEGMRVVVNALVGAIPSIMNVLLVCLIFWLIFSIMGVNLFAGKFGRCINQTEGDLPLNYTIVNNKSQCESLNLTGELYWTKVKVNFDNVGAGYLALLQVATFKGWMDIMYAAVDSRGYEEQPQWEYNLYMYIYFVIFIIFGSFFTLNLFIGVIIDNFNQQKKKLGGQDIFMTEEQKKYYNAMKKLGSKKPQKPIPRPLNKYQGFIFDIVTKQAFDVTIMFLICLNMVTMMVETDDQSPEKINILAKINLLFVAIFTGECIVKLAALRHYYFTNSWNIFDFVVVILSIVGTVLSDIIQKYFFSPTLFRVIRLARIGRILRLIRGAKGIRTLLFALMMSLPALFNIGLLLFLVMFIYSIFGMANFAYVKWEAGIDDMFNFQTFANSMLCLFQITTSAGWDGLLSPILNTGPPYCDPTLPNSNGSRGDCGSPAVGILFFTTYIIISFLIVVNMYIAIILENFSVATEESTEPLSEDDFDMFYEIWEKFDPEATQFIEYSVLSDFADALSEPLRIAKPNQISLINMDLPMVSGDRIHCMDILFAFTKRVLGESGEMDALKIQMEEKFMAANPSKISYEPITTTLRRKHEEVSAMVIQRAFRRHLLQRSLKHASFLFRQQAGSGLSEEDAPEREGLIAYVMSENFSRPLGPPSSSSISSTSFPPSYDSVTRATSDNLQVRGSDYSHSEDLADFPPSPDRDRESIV
Procedure, shortened: as §1

hERG = hERG (Homo sapiens, UniProt Q12809); test: in vitro; details: 100% = no change, <100% = inhibition
hERG, sequence (Q12809 whole entry): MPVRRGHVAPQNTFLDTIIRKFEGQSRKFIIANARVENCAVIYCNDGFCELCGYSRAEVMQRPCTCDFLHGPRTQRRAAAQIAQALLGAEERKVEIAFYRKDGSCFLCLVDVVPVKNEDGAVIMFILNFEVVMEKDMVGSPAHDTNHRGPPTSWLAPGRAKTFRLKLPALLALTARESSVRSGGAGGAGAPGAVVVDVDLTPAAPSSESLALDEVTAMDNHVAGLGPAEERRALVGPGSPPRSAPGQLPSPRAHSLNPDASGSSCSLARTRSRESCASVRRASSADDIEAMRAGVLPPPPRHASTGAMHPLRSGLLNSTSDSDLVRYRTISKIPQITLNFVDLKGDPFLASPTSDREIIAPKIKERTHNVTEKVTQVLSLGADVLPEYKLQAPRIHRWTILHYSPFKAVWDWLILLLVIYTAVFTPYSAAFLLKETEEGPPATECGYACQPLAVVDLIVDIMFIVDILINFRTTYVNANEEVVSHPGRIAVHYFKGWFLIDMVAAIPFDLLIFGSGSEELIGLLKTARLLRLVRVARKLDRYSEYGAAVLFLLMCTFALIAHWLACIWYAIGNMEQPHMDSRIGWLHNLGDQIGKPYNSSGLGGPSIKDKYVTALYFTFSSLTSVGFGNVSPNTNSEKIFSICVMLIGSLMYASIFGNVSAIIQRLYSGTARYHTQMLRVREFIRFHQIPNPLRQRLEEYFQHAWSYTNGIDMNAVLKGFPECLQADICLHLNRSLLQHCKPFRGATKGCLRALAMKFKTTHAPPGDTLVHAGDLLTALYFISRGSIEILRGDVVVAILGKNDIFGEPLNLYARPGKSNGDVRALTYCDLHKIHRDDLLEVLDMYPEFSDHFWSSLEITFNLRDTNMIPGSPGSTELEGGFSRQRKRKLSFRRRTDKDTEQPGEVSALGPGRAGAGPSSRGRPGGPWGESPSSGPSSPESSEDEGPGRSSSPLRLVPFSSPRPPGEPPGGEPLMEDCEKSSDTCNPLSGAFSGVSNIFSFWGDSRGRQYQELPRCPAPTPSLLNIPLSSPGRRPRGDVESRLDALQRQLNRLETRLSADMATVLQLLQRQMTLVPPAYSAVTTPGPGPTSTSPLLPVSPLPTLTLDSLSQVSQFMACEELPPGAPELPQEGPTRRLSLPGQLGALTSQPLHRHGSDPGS
Procedure, shortened: as §1

Kv1.2 = molecular target: T3, Kv1.2 (Homo sapiens, UniProt P16389); test: cell-based; assay type: cell-based; details: 100% = no change, <100% = inhibition
T3 construct: host or cells: HEK293 or CHO
Procedure, shortened: as §1

Kv1.3 = molecular target: T4, Kv1.3 (Homo sapiens, UniProt P22001); test: cell-based; assay type: cell-based; details: 100% = no change, <100% = inhibition
T4 construct: host or cells: HEK293 or CHO
Procedure, shortened: as §1

Kv1.1 = molecular target: T5, Kv1.1 (Homo sapiens, UniProt Q09470); test: cell-based; assay type: cell-based; details: 100% = no change, <100% = inhibition
T5 construct: host or cells: HEK293 or CHO
Procedure, shortened: as §1

Kir2.1 = molecular target: T6, Kir2.1 (Homo sapiens, UniProt P63252); test: Ion channel panel (IonWorks Barracuda): Kir2.1; assay type: cell-based; details: 100% = no change, <100% = inhibition
T6 construct: host or cells: HEK293 or CHO
Procedure, shortened: as §1

α3β4 = molecular target: T7, α3β4 (Homo sapiens, UniProt P30926+P32297); test: Ion channel panel (IonWorks Barracuda): α3β4; assay type: cell-based; details: 100% = no change, <100% = inhibition
T7 construct: host or cells: HEK293 or CHO
Procedure, shortened: as §1

TRPV1 = molecular target: T8, TRPV1 (Homo sapiens, UniProt Q8NER1); test: Ion channel panel (IonWorks Barracuda): TRPV1; assay type: cell-based; details: 100% = no change, <100% = inhibition
T8 construct: host or cells: HEK293 or CHO
Procedure, shortened: as §1

Cav2.2 = molecular target: T9, Cav2.2 (Homo sapiens, UniProt Q00975); test: cell-based; details: 100% = no change, <100% = inhibition
T9 construct: host or cells: HEK293 or CHO
Procedure, shortened: as §1

Cav2.1 = molecular target: T10, Cav2.1 (Homo sapiens, UniProt O00555); test: cell-based; details: 100% = no change, <100% = inhibition
T10 construct: host or cells: HEK293 or CHO
Procedure, shortened: as §1

Kv2.1 = molecular target: T11, Kv2.1 (Homo sapiens, UniProt Q14721); test: cell-based; details: 100% = no change, <100% = inhibition
T11 construct: host or cells: HEK293 or CHO
Procedure, shortened: as §1

TRPA1 = molecular target: T12, TRPA1 (Homo sapiens, UniProt O75762); test: Ion channel panel (IonWorks Barracuda): TRPA1; assay type: cell-based; details: 100% = no change, <100% = inhibition
T12 construct: host or cells: HEK293 or CHO
Procedure, shortened: as §1

NR2B = molecular target: T13, NR2B (Homo sapiens, UniProt Q13224); test: Ion channel panel (IonWorks Barracuda): NR2B; assay type: cell-based; details: 100% = no change, <100% = inhibition
T13 construct: host or cells: HEK293 or CHO
Procedure, shortened: as §1

NR2A = molecular target: T14, NR2A (Homo sapiens, UniProt Q12879); test: Ion channel panel (IonWorks Barracuda): NR2A; assay type: cell-based; details: 100% = no change, <100% = inhibition
T14 construct: host or cells: HEK293 or CHO
Procedure, shortened: as §1

Nav1.7 = molecular target: T15, Nav1.7 (Homo sapiens, UniProt Q15858); test: cell-based; assay type: cell-based; details: 100% = no change; for Activity of Nav1.7 with peptide, expressed as a percentage of the reference compound: peptide at 0.2 μM; for Activity of Nav1.7 with peptide (percentage of the reference compound): peptide at 20 μM
T15 construct: host or cells: HEK293 or CHO
T15 sequence (Q15858 whole entry): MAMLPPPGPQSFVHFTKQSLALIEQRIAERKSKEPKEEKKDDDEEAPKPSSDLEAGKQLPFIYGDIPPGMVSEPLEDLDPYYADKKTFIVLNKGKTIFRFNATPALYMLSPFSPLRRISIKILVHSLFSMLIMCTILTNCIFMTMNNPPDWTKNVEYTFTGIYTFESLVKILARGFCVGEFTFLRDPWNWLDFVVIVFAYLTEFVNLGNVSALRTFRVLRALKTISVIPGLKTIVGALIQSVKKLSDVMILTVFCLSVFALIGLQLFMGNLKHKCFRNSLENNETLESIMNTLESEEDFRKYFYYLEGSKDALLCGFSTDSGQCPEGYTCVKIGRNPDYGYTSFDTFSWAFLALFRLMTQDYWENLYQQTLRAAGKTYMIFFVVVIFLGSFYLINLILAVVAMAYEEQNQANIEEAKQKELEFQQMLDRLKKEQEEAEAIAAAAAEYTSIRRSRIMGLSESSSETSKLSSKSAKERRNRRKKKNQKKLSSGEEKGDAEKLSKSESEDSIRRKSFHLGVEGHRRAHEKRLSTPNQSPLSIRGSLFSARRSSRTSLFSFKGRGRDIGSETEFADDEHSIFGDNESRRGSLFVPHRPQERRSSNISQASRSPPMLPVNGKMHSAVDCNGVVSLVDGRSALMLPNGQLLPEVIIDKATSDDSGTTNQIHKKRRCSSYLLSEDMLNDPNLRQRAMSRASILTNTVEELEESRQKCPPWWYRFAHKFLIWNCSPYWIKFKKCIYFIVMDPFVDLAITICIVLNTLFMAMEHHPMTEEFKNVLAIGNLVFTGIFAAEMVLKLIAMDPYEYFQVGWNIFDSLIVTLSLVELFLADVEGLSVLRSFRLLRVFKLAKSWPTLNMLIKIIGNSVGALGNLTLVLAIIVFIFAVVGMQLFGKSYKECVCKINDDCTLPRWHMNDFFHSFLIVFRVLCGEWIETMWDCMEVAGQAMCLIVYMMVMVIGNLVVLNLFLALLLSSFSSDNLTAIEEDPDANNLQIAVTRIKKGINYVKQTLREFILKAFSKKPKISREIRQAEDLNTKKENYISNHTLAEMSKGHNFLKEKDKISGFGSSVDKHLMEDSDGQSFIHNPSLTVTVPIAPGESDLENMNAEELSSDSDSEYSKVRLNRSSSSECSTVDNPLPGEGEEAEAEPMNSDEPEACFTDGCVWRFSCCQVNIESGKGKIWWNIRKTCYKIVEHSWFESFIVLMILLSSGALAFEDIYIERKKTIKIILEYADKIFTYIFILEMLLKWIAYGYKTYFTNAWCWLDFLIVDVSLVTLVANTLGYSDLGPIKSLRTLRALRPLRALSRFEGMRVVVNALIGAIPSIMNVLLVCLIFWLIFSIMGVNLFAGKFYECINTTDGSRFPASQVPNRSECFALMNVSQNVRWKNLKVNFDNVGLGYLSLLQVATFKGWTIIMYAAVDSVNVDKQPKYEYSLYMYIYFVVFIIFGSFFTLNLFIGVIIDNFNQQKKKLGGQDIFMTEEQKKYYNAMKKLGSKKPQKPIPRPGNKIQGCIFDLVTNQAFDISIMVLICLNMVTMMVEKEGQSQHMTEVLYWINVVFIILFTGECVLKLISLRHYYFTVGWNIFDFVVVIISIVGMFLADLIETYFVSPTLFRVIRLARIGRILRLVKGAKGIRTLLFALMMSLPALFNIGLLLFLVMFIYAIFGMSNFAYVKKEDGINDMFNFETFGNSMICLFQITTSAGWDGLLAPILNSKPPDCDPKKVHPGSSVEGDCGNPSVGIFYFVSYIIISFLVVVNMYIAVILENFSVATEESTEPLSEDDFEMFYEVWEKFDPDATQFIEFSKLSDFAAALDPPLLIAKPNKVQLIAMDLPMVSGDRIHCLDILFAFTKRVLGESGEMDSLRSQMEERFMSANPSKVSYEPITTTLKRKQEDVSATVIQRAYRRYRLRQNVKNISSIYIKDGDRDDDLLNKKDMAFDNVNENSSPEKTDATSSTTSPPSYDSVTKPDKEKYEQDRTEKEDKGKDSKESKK

GABA = test: Ion channel panel (IonWorks Barracuda): GABA; assay type: cell-based; details: 100% = no change, <100% = inhibition
Procedure, shortened: as §1

[1] = first of two Nav1.5 columns (probably TP1)
[2] = second of two Nav1.5 columns (probably TP2)
[3] = first of two Nav1.7 columns (probably TP1)
[4] = second of two Nav1.7 columns (probably TP2)

## 22 (GSSDYCSNDFCFFSCRRDRCARGDCENGKCVCKNCHLN) [compound 22]
α4β2; peptide at 0.2 μM
  Activity of a4b2 with peptide, expressed as a percentage of the reference compound: 92%
α4β2; peptide at 20 μM
  Activity of a4b2 with peptide (percentage of the reference compound): 83%
5HT3a
  Activity of 5HT3a with peptide (percentage of the reference compound): 95%
  Activity of 5HT3a with peptide, expressed as a percentage of the reference compound: 77%
Nav1.5; [1]
  Activity of Nav1.5 with peptide, expressed as a percentage of the reference compound: 90%
  Activity of Nav1.5 with peptide (percentage of the reference compound): 112%
Nav1.5; [2]
  Activity of Nav1.5 with peptide, expressed as a percentage of the reference compound: 90%
  Activity of Nav1.5 with peptide (percentage of the reference compound): 116%
hERG; peptide at 0.2 μM
  Activity of hERG with peptide, expressed as a percentage of the reference compound: 84%
hERG; peptide at 20 μM
  Activity of hERG with peptide (percentage of the reference compound): 79%
Kv1.2; peptide at 0.2 μM
  Activity of Kv1.2 with peptide, expressed as a percentage of the reference compound: 82%
Kv1.2; peptide at 20 μM
  Activity of Kv1.2 with peptide (percentage of the reference compound): 34%
Kv1.3; peptide at 0.2 μM
  Activity of Kv1.3 with peptide, expressed as a percentage of the reference compound: 100%
Kv1.3; peptide at 20 μM
  Activity of Kv1.3 with peptide (percentage of the reference compound): 51%
Kv1.1; peptide at 0.2 μM
  Activity of Kv1.1 with peptide, expressed as a percentage of the reference compound: 83%
Kv1.1; peptide at 20 μM
  Activity of Kv1.1 with peptide (percentage of the reference compound): 97%
Kir2.1; peptide at 0.2 μM
  Activity of Kir2.1 with peptide, expressed as a percentage of the reference compound: 94%
Kir2.1; peptide at 20 μM
  Activity of Kir2.1 with peptide (percentage of the reference compound): 97%
α3β4; peptide at 0.2 μM
  Activity of a3b4 with peptide, expressed as a percentage of the reference compound: 98%
α3β4; peptide at 20 μM
  Activity of a3b4 with peptide (percentage of the reference compound): 92%
TRPV1; peptide at 0.2 μM
  Activity of TRPV1 with peptide, expressed as a percentage of the reference compound: 102%
TRPV1; peptide at 20 μM
  Activity of TRPV1 with peptide (percentage of the reference compound): 67%
Cav2.2; peptide at 0.2 μM
  Activity of Cav2.2 with peptide, expressed as a percentage of the reference compound: 130%
Cav2.2; peptide at 20 μM
  Activity of Cav2.2 with peptide (percentage of the reference compound): 86%
Cav2.1; peptide at 0.2 μM
  Activity of Cav2.1 with peptide, expressed as a percentage of the reference compound: 98%
Cav2.1; peptide at 20 μM
  Activity of Cav2.1 with peptide (percentage of the reference compound): 99%
Kv2.1; peptide at 0.2 μM
  Activity of Kv2.1 with peptide, expressed as a percentage of the reference compound: 110%
Kv2.1; peptide at 20 μM
  Activity of Kv2.1 with peptide (percentage of the reference compound): 93%
TRPA1; peptide at 0.2 μM
  Activity of TRPA1 with peptide, expressed as a percentage of the reference compound: 90%
TRPA1; peptide at 20 μM
  Activity of TRPA1 with peptide (percentage of the reference compound): 128%
NR2B; peptide at 0.2 μM
  Activity of NR2B with peptide, expressed as a percentage of the reference compound: 94%
NR2B; peptide at 20 μM
  Activity of NR2B with peptide (percentage of the reference compound): 97%
NR2A; peptide at 0.2 μM
  Activity of NR2A with peptide, expressed as a percentage of the reference compound: 107%
NR2A; peptide at 20 μM
  Activity of NR2A with peptide (percentage of the reference compound): 129%
Nav1.7; [3]
  Activity of Nav1.7 with peptide, expressed as a percentage of the reference compound: 79%
  Activity of Nav1.7 with peptide (percentage of the reference compound): 94%
Nav1.7; [4]
  Activity of Nav1.7 with peptide, expressed as a percentage of the reference compound: 81%
  Activity of Nav1.7 with peptide (percentage of the reference compound): 87%
GABA; peptide at 0.2 μM
  Activity of GABA with peptide, expressed as a percentage of the reference compound: 99%
GABA; peptide at 20 μM
  Activity of GABA with peptide (percentage of the reference compound): 124%
